{"source": "paper PMC5374524", "about": "“Label-free quantification of calcium-sensor targeting to photoreceptor guanylate cyclase and rhodopsin kinase by backscattering interferometry” (Scientific Reports, 2017)", "molecules": {"B1": {"name": "GST fusion protein containing the N-terminal 25 amino acids of bovine GRK1 (domain or fragment, UniProt P28327 1-25, looked up)", "chain": "MDFGSLETVVANSAFIAARGSFDAS", "notes": "rhodopsin kinase GRK1, bovine, the N-terminal 25 amino acids; also called NRK; N-terminal GRK1 fragment"}, "B2": {"name": "guanylate cyclase-activating protein 2 (GCAP2), myristoylated (natural protein, UniProt P51177 1-204, looked up)", "chain": "MGQQFSWEEAEENGAVGAADAAQLQEWYKKFLEECPSGTLFMHEFKRFFKVPDNEEATQYVEAMFRAFDTNGDNTIDFLEYVAALNLVLRGTLEHKLKWTFKIYDKDRNGCIDRQELLDIVESIYKLKKACSVEVEAEQQGKLLTPEEVVDRIFLLVDENGDGQLSLNEFVEGARRDKWVMKMLQMDLNPSSWISQQRRKSAMF", "modifications": "myristoylated"}}, "key": {"[1]": {"biological_target": "MBP-KHD: maltose binding protein fused to the juxta-membrane and kinase homology domain of human GC-E (M496-K806) (human) (UniProt Q02846)", "test": "backscattering interferometry (BSI); free solution; myristoylated GCAP 0 to 6 μM with constant 375 nM MBP fusion protein; titration buffer with 200 μM Ca2+; MBP lacking a GC-E fragment as reference"}, "[2]": {"biological_target": "full-length human photoreceptor guanylate cyclase GC-E (human) (UniProt Q02846)", "test": "backscattering interferometry (BSI); free solution; HEK cell vesicles with full-length human GC-E with 0-10 μM GCAP; titration buffer with saturating 200 μM Ca2+; Mock-HEK vesicles as reference"}, "[3]": {"biological_target": "MBP-KHD: maltose binding protein fused to the juxta-membrane and kinase homology domain of human GC-E (M496-K806) (human) (UniProt Q02846)", "test": "ITC; VP-ITC, 25 °C; MBP fusion protein 0.5 μM in the cell, GCAP 10 μM in the syringe; 30 mM Mops/KOH pH 7.2, 60 mM KCl, 4 mM NaCl, 1 mM DTT, 3.5 mM MgCl2, 1 mM GTP, 0.3 mM ATP; injections into MBP subtracted; one binding site model; data not shown"}, "[4]": {"biological_target": "full-length human photoreceptor guanylate cyclase GC-E (human) (UniProt Q02846)", "test": "backscattering interferometry (BSI); free solution; HEK cell vesicles with full-length human GC-E (50 μg/mL total protein before mixing) with 0-10 μM GCAP; 30 mM Mops/KOH pH 7.2, 60 mM KCl, 4 mM NaCl, 1 mM DTT, 3.5 mM MgCl2, 1 mM GTP, 0.3 mM ATP; 1 mM EGTA; Mock-HEK vesicles as reference; apparent KD"}, "[5]": {"biological_target": "T1, myristoylated bovine recoverin (bovine, UniProt P21457 1-202, myristoylated)", "T1 construct": "recoverin, bovine, neuronal Ca2+-sensor protein of photoreceptors", "T1 sequence (looked up)": "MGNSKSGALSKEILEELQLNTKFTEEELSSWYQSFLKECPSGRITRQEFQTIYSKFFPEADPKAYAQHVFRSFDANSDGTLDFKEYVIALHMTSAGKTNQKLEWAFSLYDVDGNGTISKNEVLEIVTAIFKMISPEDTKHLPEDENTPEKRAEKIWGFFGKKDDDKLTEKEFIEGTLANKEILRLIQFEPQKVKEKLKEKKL", "test": "backscattering interferometry (BSI); free solution, label-free; recoverin dilution series with constant 4 μM GST-NRK; 20 mM HEPES/KOH pH 7.5, 100 mM NaCl, 1 mM MgCl2, 200 μM CaCl2; GST alone as reference; one site binding model", "conditions": "both partners purified"}, "[6]": {"biological_target": "T2, full-length human photoreceptor guanylate cyclase GC-E (human, UniProt Q02846 52-1103)", "T2 construct": "also called guanylate cyclase 1; guanylate cyclase type 1", "T2 sequence (looked up)": "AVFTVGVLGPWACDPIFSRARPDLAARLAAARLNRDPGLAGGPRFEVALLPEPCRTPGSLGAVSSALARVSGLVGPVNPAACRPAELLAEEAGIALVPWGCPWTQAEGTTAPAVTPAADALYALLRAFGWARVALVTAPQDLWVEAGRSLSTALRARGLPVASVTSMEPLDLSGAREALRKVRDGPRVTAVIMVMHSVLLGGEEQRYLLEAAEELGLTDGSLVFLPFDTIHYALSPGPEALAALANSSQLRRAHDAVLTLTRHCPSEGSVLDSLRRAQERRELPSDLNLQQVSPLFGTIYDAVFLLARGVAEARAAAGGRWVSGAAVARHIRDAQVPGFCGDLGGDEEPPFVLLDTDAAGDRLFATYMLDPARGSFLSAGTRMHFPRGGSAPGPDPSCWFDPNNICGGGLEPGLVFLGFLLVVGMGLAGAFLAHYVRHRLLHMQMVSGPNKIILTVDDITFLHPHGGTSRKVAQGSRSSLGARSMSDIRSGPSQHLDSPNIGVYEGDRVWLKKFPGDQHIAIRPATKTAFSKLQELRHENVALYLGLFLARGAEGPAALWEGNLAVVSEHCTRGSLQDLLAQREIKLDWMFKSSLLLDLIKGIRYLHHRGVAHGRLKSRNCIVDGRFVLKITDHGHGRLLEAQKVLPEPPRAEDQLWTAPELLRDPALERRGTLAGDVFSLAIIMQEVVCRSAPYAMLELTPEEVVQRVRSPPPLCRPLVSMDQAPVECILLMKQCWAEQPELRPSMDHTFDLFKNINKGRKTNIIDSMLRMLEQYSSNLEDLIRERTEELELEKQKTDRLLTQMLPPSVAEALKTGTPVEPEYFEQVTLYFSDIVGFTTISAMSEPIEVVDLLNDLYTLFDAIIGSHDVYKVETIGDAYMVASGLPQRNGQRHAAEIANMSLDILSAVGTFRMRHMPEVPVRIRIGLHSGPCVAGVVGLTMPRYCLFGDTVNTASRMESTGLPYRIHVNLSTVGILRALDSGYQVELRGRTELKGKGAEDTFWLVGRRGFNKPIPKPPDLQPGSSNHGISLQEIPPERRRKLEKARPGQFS", "test": "backscattering interferometry (BSI); free solution; HEK cell vesicles with full-length human GC-E with 0-10 μM GCAP; titration buffer with saturating 200 μM Ca2+; Mock-HEK vesicles as reference", "conditions": "one partner purified"}, "[7]": {"biological_target": "T2, full-length human photoreceptor …", "test": "backscattering interferometry (BSI); free solution; HEK cell vesicles with full-length human GC-E (50 μg/mL total protein before mixing) with 0-10 μM GCAP; 30 mM Mops/KOH pH 7.2, 60 mM KCl, 4 mM NaCl, 1 mM DTT, 3.5 mM MgCl2, 1 mM GTP, 0.3 mM ATP; 1 mM EGTA; Mock-HEK vesicles as reference; apparent KD", "conditions": "one partner purified"}}}
{"molecule": "guanylate cyclase-activating protein 1 (GCAP1), myristoylated (from UniProt P46065 1-205) (natural protein)", "values": [{"measurement": "Kd", "setting": "[1]", "result": 841, "unit": "nM"}, {"measurement": "Kd", "setting": "[2]", "result": 505, "unit": "nM"}, {"measurement": "Kd", "setting": "[3]", "result": 580, "unit": "nM"}, {"measurement": "stoichiometry N", "setting": "[3]", "result": 0.9}, {"measurement": "Kd", "setting": "[4]", "result": 663, "unit": "nM"}]}
{"molecule": "B1", "values": [{"measurement": "Kd", "setting": "[5]", "result": 4720, "unit": "nM"}]}
{"molecule": "B2", "values": [{"measurement": "Kd", "setting": "[6]", "result": "418 ± 135", "unit": "nM"}, {"measurement": "Kd", "setting": "[7]", "result": 231, "unit": "nM"}]}
